How the values were obtained:
[1] = target: rHuman CD44/Fc Chimera, CF (R&D Systems Cat#3660-CD) (human) (UniProt P16070); experiment: ECL (MSD multi-spot) titration, Fab at 0.00391 uM; blank spot 576
[2] = target: rHuman CD44/Fc Chimera, CF (R&D Systems Cat#3660-CD) (human) (UniProt P16070); experiment: ECL (MSD multi-spot) titration, Fab at 0.25 uM; blank spot 6344
[3] = target: rHuman CD44/Fc Chimera, CF (R&D Systems Cat#3660-CD) (human) (UniProt P16070); experiment: ECL (MSD multi-spot) titration, Fab at 0.01563 uM; blank spot 906
[4] = target: rHuman CD44/Fc Chimera, CF (R&D Systems Cat#3660-CD) (human) (UniProt P16070); experiment: ECL (MSD multi-spot) titration, Fab at 0.0625 uM; blank spot 1738
[5] = target: rHuman CD44/Fc Chimera, CF (R&D Systems Cat#3660-CD) (human) (UniProt P16070); experiment: MSD ECL multi-spot assay, antigen spotted on plate, Fab 0.25 uM; blank spot 3693
[6] = target: rHuman HGF R/c-MET/Fc Chimera, CF (R&D Systems Cat#358-MT/CF) (human) (UniProt P08581); experiment: as above
[7] = target: rHuman P-Cadherin/Fc Chimera, CF (R&D Systems Cat#861-PC) (human) (UniProt P22223); experiment: MSD ECL multi-spot plate; Fab 280 nM; blank spot 1691
[8] = target: rHuman P-Cadherin/Fc Chimera, CF (R&D Systems Cat#861-PC) (human) (UniProt P22223); experiment: MSD ECL multi-spot plate; Fab 70 nM; blank spot 635
[9] = target: rHuman CD44/Fc Chimera, CF (R&D Systems Cat#3660-CD) (human) (UniProt P16070); experiment: MSD ECL multi-spot assay, antigen spotted on plate, Fab 0.28 uM; blank spot 1773
[10] = target: rHuman Notch-1/Fc Chimera, CF (R&D Systems Cat#3647-TK) (human) (UniProt P46531); experiment: as above
[11] = target: rHuman IGF-1 sR (IGF-1 sR), CF (R&D Systems Cat#391-GR) (human) (UniProt P08069); experiment: as above
[12] = target: rHuman HGF R/c-MET/Fc Chimera, CF (R&D Systems Cat#358-MT/CF) (human) (UniProt P08581); experiment: as above
[13] = target: rHuman ErbB2/Fc Chimera, CF (R&D Systems Cat#1129-ER) (human) (UniProt P04626); experiment: as above
[14] = target: rHuman P-Cadherin/Fc Chimera, CF (R&D Systems Cat#861-PC) (human) (UniProt P22223); experiment: MSD ECL multi-spot plate; Fab 4.375 nM; blank spot 305
[15] = target: rHuman P-Cadherin/Fc Chimera, CF (R&D Systems Cat#861-PC) (human) (UniProt P22223); experiment: MSD ECL multi-spot plate; Fab 17.5 nM; blank spot 304
[16] = target: rHuman CD44/Fc Chimera, CF (R&D Systems Cat#3660-CD) (human) (UniProt P16070); experiment: ECL (MSD Multi-Spot) titration, antigen spotted on plate; Fab 0.312 µM; blank spot 1977
[17] = target: Recombinant Human DLL4 (R&D Systems Cat#1506-D4/CF) (human) (UniProt Q9NR61); experiment: as above
[18] = target: rHuman Notch-1/Fc Chimera, CF (R&D Systems Cat#3647-TK) (human) (UniProt P46531); experiment: as above
[19] = target: rHuman Erythropoietin R/Fc Chimera, CF (R&D Systems Cat#963-ER) (human) (UniProt P19235); experiment: as above
[20] = target: rHuman HGF R/c-MET/Fc Chimera, CF (R&D Systems Cat#358-MT/CF) (human) (UniProt P08581); experiment: as above
[21] = target: rHuman ErbB2/Fc Chimera, CF (R&D Systems Cat#1129-ER) (human) (UniProt P04626); experiment: as above
[22] = target: rHuman EGF R/Fc Chimera, CF (R&D Systems Cat#344-ER) (human) (UniProt P00533); experiment: as above
[23] = target: rHuman CD44/Fc Chimera, CF (R&D Systems Cat#3660-CD) (human) (UniProt P16070); experiment: MSD ECL multi-spot assay, antigen spotted on plate, Fab […]; blank spot 1129
[24] = target: Recombinant Human DLL4 (R&D Systems Cat#1506-D4/CF) (human) (UniProt Q9NR61); experiment: as above
[25] = target: rHuman Notch-1/Fc Chimera, CF (R&D Systems Cat#3647-TK) (human) (UniProt P46531); experiment: as above
[26] = target: rHuman Erythropoietin R/Fc Chimera, CF (R&D Systems Cat#963-ER) (human) (UniProt P19235); experiment: as above
[27] = target: rHuman HGF R/c-MET/Fc Chimera, CF (R&D Systems Cat#358-MT/CF) (human) (UniProt P08581); experiment: as above
[28] = target: rHuman ErbB2/Fc Chimera, CF (R&D Systems Cat#1129-ER) (human) (UniProt P04626); experiment: as above
[29] = target: rHuman EGF R/Fc Chimera, CF (R&D Systems Cat#344-ER) (human) (UniProt P00533); experiment: as above
[30] = target: rHuman CD44/Fc Chimera, CF (R&D Systems Cat#3660-CD) (human) (UniProt P16070); experiment: ECL (MSD Multi-Spot) titration, antigen spotted on plate; Fab 0.0624 µM; blank spot 960
[31] = target: Recombinant Human DLL4 (R&D Systems Cat#1506-D4/CF) (human) (UniProt Q9NR61); experiment: as above
[32] = target: rHuman Notch-1/Fc Chimera, CF (R&D Systems Cat#3647-TK) (human) (UniProt P46531); experiment: as above
[33] = target: rHuman Erythropoietin R/Fc Chimera, CF (R&D Systems Cat#963-ER) (human) (UniProt P19235); experiment: as above
[34] = target: rHuman HGF R/c-MET/Fc Chimera, CF (R&D Systems Cat#358-MT/CF) (human) (UniProt P08581); experiment: as above
[35] = target: rHuman ErbB2/Fc Chimera, CF (R&D Systems Cat#1129-ER) (human) (UniProt P04626); experiment: as above
[36] = target: rHuman EGF R/Fc Chimera, CF (R&D Systems Cat#344-ER) (human) (UniProt P00533); experiment: as above
[37] = target: rHuman CD44/Fc Chimera, CF (R&D Systems Cat#3660-CD) (human) (UniProt P16070); experiment: ECL (MSD Multi-Spot) titration, antigen spotted on plate; Fab […]; blank spot 4357
[38] = target: Recombinant Human DLL4 (R&D Systems Cat#1506-D4/CF) (human) (UniProt Q9NR61); experiment: as above
[39] = target: rHuman Notch-1/Fc Chimera, CF (R&D Systems Cat#3647-TK) (human) (UniProt P46531); experiment: as above
[40] = target: rHuman Erythropoietin R/Fc Chimera, CF (R&D Systems Cat#963-ER) (human) (UniProt P19235); experiment: as above
[41] = target: rHuman HGF R/c-MET/Fc Chimera, CF (R&D Systems Cat#358-MT/CF) (human) (UniProt P08581); experiment: as above
[42] = target: rHuman ErbB2/Fc Chimera, CF (R&D Systems Cat#1129-ER) (human) (UniProt P04626); experiment: as above
[43] = target: rHuman EGF R/Fc Chimera, CF (R&D Systems Cat#344-ER) (human) (UniProt P00533); experiment: as above

rHuman Erythropoietin R/Fc Chimera, CF (R&D Systems Cat#963-ER) (human), sequence (P19235 25-250, change not shown): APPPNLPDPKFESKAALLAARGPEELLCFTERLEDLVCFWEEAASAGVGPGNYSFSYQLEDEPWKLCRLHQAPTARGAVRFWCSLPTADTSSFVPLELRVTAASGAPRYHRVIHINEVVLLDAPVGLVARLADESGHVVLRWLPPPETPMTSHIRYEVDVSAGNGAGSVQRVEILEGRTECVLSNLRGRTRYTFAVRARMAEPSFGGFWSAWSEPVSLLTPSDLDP

An ECL signal [1] of 1300, an ECL signal [2] of 23000 and an ECL signal [3] of 3180 were found for “Fab VH1-46_IGHD2-15*01_IGHJ2*01 & L2_IGKJ1*01” in this work. It also gave an ECL signal [4] of 6750, an ECL signal [5] of 10400 and an ECL signal [6] of 5910.

An ECL signal [7] of 5400 ECL signal, an ECL signal [8] of 1820 ECL signal and an ECL signal [9] of 4560 were found for “Fab VH1-46_IGHD2-15*01_IGHJ2*01 & L12_IGKJ1*01” in this work. For the same substance, the ECL signal [10] was 5280, the ECL signal [11] was 4640 and the ECL signal [12] was 5180. It also gave an ECL signal [13] of 4310, an ECL signal [14] of 469 ECL signal and an ECL signal [15] of 949 ECL signal.

An ECL signal [16] of 4170, an ECL signal [17] of 5480 and an ECL signal [18] of 4460 were found for “Fab VH1-46_IGHD7-27*01_IGHJ2*01 & L6_IGKJ1*01” in this work. For the same substance, the ECL signal [19] was 5020, the ECL signal [20] was 4690 and the ECL signal [21] was 3660. The ECL signal [22] was 4330, the ECL signal [23] was 2280 and the ECL signal [24] was 3770. The ECL signal [25] was 3950, the ECL signal [26] was 4130 and the ECL signal [27] was 3120. For the same substance, the ECL signal [28] was 2450, the ECL signal [29] was 2500 and the ECL signal [30] was 2110. It also gave an ECL signal [31] of 2580, an ECL signal [32] of 2350 and an ECL signal [33] of 2680. For the same substance, the ECL signal [34] was 2450, the ECL signal [35] was 2150 and the ECL signal [36] was 2420. It also gave an ECL signal [37] of 7600, an ECL signal [38] of 10900 and an ECL signal [39] of 9450. For the same substance, the ECL signal [40] was 9480, the ECL signal [41] was 10300 and the ECL signal [42] was 7580. For the same substance, the ECL signal [43] was 7830.
